Test results as given in patent US20240309360A1 (GOVERNING COUNCIL OF THE UNIVERSITY OF TORONTO, published 2024).
Each block holds one binder with its values, some of them ahead of it.

Columns and labels:
Assay in all cases: BioID2 proximity labelling, HEK293 cells
p300 = molecular target: T1, p300 (human, UniProt Q09472 2-2414)
T1 construct: Endogenous prey identified by mass spectrometry; also called EP300; CBP/p300 (with CBP)

CBP = molecular target: T2, CBP (human, UniProt Q92793 2-2442)
T2 construct: Endogenous prey identified by mass spectrometry; also called CBP/p300 (with p300)
T2 sequence (Q92793 2-2442 limits assumed): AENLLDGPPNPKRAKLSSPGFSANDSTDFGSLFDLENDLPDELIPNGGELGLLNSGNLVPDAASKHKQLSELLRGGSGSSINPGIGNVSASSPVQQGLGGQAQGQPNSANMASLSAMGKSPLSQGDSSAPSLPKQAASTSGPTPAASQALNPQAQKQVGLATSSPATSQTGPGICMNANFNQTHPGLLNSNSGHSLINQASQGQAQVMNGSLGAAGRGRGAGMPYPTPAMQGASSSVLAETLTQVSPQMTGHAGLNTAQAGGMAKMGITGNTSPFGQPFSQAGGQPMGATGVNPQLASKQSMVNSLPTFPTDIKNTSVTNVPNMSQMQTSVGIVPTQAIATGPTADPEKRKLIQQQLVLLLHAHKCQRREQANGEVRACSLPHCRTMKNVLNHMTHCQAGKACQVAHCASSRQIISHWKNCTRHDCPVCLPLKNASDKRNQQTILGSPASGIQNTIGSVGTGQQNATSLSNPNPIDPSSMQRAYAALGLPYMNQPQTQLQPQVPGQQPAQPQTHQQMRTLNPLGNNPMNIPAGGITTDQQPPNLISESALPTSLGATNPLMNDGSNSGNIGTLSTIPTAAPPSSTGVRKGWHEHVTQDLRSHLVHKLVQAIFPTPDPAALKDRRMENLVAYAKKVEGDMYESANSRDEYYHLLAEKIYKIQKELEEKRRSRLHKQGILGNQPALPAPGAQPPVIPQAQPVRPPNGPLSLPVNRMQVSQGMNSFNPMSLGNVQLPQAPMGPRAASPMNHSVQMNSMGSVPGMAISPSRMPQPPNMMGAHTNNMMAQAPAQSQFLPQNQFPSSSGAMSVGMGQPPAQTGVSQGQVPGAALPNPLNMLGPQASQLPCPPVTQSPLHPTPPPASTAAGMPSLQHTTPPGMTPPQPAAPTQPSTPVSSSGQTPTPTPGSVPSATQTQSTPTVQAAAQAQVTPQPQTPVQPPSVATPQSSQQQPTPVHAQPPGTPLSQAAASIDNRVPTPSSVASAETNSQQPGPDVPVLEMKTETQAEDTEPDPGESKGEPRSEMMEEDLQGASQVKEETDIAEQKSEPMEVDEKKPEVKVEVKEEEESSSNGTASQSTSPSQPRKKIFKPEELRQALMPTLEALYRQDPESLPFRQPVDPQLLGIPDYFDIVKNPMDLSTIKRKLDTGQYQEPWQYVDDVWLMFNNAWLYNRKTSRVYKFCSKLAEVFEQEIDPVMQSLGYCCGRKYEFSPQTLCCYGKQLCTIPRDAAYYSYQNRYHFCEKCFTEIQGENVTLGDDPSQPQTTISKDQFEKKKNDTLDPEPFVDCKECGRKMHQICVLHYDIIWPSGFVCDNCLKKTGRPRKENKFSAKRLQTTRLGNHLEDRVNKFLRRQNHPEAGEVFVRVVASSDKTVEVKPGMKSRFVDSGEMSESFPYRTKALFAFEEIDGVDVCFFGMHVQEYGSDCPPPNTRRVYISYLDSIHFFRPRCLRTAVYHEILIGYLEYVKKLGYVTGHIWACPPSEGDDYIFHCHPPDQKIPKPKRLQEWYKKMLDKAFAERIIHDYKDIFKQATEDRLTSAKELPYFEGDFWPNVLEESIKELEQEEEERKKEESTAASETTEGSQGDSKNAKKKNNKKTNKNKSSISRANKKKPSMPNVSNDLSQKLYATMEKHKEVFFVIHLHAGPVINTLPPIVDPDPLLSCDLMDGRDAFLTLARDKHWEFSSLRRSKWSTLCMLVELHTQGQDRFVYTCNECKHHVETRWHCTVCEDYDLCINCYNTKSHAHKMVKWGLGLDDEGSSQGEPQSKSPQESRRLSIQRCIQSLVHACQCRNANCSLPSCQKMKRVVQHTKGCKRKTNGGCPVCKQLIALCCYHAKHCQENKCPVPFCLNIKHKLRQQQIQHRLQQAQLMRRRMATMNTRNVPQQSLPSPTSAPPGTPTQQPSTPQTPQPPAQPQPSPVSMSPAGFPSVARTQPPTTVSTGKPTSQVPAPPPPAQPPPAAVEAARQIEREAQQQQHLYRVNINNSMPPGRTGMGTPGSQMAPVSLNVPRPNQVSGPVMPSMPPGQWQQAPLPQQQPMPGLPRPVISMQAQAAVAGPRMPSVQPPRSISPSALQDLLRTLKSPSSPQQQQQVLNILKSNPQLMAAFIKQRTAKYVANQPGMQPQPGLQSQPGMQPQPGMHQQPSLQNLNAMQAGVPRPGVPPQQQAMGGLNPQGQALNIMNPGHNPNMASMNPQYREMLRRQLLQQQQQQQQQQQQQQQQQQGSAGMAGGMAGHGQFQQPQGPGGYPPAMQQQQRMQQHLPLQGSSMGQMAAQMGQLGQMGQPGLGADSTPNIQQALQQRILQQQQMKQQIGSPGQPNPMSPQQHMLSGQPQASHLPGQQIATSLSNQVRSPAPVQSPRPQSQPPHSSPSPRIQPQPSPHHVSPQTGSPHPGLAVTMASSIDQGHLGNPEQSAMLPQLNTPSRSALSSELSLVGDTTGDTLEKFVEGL

[1] = molecular target: T3, SUZ12 tagged with BirA-FLAG (human; Aquifex aeolicus, UniProt Q15022 1-739)
T3 construct: not shown: BioID2 biotin ligase (BirA from Aquifex aeolicus) tag

[2] = molecular target: T4, SRF (Serum Response Factor) tagged with BirA-FLAG (human; Aquifex aeolicus, UniProt P11831 1-508)
T4 construct: not shown: BioID2 biotin ligase (BirA from Aquifex aeolicus) tag
T4 sequence (looked up): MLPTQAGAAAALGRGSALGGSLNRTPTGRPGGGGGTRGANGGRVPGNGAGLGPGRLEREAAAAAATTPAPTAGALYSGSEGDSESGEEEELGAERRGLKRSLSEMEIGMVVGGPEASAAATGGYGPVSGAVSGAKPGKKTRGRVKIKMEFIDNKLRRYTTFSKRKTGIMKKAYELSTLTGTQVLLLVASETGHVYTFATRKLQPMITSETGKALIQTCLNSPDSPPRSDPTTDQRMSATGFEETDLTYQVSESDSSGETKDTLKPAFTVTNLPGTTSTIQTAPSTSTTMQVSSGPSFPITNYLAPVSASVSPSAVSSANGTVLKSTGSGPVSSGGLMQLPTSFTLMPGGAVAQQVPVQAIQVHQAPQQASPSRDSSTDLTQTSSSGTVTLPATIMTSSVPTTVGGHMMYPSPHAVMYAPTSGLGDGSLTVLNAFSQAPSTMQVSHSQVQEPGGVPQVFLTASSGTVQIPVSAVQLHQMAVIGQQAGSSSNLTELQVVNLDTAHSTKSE

T1 sequence (Q09472 2-2414 limits assumed): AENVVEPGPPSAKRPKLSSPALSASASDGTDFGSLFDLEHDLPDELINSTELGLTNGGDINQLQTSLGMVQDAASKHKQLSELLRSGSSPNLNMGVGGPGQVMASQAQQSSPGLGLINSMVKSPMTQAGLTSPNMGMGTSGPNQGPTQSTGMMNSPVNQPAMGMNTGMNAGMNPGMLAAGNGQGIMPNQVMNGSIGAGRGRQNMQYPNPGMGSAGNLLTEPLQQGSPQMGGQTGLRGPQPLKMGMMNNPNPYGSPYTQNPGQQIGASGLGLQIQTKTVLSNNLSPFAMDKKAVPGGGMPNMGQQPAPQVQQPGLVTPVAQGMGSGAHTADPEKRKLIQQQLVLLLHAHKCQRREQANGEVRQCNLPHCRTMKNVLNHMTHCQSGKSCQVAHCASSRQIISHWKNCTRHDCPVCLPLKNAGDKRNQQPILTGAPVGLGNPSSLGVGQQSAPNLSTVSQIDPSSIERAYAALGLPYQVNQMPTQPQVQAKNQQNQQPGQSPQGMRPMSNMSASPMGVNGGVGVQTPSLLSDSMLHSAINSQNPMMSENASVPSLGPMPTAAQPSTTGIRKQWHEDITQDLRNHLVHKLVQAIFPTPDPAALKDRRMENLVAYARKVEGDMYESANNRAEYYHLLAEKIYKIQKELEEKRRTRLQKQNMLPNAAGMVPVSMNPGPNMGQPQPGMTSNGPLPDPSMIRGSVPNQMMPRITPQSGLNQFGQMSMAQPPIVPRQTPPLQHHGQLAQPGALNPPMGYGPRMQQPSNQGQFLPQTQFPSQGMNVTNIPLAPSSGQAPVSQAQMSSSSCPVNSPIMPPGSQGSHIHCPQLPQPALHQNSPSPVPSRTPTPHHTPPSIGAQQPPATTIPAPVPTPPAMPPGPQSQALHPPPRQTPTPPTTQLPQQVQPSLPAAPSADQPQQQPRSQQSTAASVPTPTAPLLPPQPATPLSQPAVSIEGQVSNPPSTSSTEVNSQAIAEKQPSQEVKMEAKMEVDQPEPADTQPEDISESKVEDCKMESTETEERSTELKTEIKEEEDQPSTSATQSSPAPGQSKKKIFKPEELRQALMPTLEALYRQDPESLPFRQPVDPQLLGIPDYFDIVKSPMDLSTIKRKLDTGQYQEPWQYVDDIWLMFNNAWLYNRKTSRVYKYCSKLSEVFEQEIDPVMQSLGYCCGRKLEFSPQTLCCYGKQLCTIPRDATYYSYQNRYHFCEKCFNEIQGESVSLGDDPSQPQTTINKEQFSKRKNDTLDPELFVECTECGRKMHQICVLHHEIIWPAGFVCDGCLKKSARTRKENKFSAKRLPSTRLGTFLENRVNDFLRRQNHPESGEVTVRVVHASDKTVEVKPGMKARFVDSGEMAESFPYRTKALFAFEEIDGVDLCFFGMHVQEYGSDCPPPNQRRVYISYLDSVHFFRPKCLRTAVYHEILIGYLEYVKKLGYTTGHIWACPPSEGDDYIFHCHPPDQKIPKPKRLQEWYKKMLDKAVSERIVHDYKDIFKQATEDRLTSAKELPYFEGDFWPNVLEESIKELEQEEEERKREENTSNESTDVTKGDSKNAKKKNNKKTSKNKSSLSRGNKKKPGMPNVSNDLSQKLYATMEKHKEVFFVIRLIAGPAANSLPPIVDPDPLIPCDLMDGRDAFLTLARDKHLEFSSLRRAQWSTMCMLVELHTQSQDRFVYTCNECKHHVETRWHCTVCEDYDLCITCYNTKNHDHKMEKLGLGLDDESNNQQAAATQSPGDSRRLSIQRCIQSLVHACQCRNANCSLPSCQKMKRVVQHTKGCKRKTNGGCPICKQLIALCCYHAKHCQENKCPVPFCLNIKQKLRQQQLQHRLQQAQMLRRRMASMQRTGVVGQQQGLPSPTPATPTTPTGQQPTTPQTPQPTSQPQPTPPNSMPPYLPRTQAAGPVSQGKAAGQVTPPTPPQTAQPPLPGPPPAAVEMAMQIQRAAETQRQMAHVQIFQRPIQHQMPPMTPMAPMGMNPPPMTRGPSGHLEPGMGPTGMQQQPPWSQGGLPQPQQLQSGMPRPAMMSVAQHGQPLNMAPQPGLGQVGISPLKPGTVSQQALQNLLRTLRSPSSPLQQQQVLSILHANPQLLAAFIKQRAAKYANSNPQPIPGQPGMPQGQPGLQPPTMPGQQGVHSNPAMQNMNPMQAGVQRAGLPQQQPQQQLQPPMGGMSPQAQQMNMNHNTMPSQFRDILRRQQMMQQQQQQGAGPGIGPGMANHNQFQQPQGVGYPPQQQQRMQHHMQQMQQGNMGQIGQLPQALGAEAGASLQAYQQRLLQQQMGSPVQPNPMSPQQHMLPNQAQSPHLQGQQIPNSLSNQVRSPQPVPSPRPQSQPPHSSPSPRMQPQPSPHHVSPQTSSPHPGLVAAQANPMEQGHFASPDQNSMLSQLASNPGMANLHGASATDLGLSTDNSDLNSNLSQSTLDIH

binding result (p300): binds | binding result (CBP): binds
B1: SOX7 fused to BioID2 (BirA from Aquifex aeolicus) and FLAG (other, human;Aquifex aeolicus, UniProt Q9BT81 1-388, looked up)
chain: MASLLGAYPWPEGLECPALDAELSDGQSPPAVPRPPGDKGSESRIRRPMNAFMVWAKDERKRLAVQNPDLHNAELSKMLGKSWKALTLSQKRPYVDEAERLRLQHMQDYPNYKYRPRRKKQAKRLCKRVDPGFLLSSLSRDQNALPEKRSGSRGALGEKEDRGEYSPGTALPSLRGCYHEGPAGGGGGGTPSSVDTYPYGLPTPPEMSPLDVLEPEQTFFSSPCQEEHGHPRRIPHLPGHPYSPEYAPSPLHCSHPLGSLALGQSPGVSMMSPVPGCPPSPAYYSPATYHPLHSNLQAHLGQLSPPPEHPGFDALDQLSQVELLGDMDRNEFDQYLNTPGHPDSATGAMALSGHVPVSQVTPTGPTETSLISVLADATATYYNSYSVS
notes: Tetracycline-inducible bait in HEK293 Flp-In T-REx cells; not shown: BioID2 biotin ligase (BirA from Aquifex aeolicus), C-terminal tag

binding result [1]: binds
B2: MTF2/PCL2 (other, human, UniProt Q9Y483 1-593, looked up)
chain: MRDSTGAGNSLVHKRSPLRRNQKTPTSLTKLSLQDGHKAKKPACKFEEGQDVLARWSDGLFYLGTIKKINILKQSCFIIFEDSSKSWVLWKDIQTGATGSGEMVCTICQEEYSEAPNEMVICDKCGQGYHQLCHTPHIDSSVIDSDEKWLCRQCVFATTTKRGGALKKGPNAKALQVMKQTLPYSVADLEWDAGHKTNVQQCYCYCGGPGDWYLKMLQCCKCKQWFHEACVQCLQKPMLFGDRFYTFICSVCSSGPEYLKRLPLQWVDIAHLCLYNLSVIHKKKYFDSELELMTYINENWDRLHPGELADTPKSERYEHVLEALNDYKTMFMSGKEIKKKKHLFGLRIRVPPVPPNVAFKAEKEPEGTSHEFKIKGRKASKPISDSREVSNGIEKKGKKKSVGRPPGPYTRKMIQKTAEPLLDKESISENPTLDLPCSIGRTEGTAHSSNTSDVDFTGASSAKETTSSSISRHYGLSDSRKRTRTGRSWPAAIPHLRRRRGRLPRRALQTQNSEIVKDDEGKEDYQFDELNTEILNNLADQELQLNHLKNSITSYFGAAGRIACGEKYRVLARRVTLDGKVQYLVEWEGATAS

binding result [2]: binds
B3: ELK1 (other, human, UniProt P19419 1-428, looked up)
chain: MDPSVTLWQFLLQLLREQGNGHIISWTSRDGGEFKLVDAEEVARLWGLRKNKTNMNYDKLSRALRYYYDKNIIRKVSGQKFVYKFVSYPEVAGCSTEDCPPQPEVSVTSTMPNVAPAAIHAAPGDTVSGKPGTPKGAGMAGPGGLARSSRNEYMRSGLYSTFTIQSLQPQPPPHPRPAVVLPSAAPAGAAAPPSGSRSTSPSPLEACLEAEEAGLPLQVILTPPEAPNLKSEELNVEPGLGRALPPEVKVEGPKEELEVAGERGFVPETTKAEPEVPPQEGVPARLPAVVMDTAGQAGGHAASSPEISQPQKGRKPRDLELPLSPSLLGGPGPERTPGSGSGSGLQAPGPALTPSLLPTHTLTPVLLTPSSLPPSIHFWSTLSPIAPRSPAKLSFQFPSSGSAQVHIPSISVDGLSTPVVLSPGPQKP
